Measurements taken from patent publication US20140087995A1 (published 2014).
Numbered stars: 1 amine (or outer) side, 2 acyl side, 3 side chain; on linkers, the order of the positions; unused ones are H or OH. Bridge positions count the residues as written; N and C are the ends. Side chains are listed from the residue outwards. Ends that are not written are not given here. * marks the point of attachment. C20 diacid = O=C(O)CCCCCCCCCCCCCCCCCCC(=O)*; γGlu = O=C(O)[C@H](CCC(=O)[*:2])N[*:1]; AEEA = NCCOCCOCC(=O)O

Assays:
[1] = target: T1, human amylin receptor (amylin 3(a) receptor: human calcitonin receptor co-expressed with RAMP-3) (human, UniProt P30988 25-474; O60896 24-148, limits assumed); assay: cell-based or functional assay
T1 sequence (looked up) 1: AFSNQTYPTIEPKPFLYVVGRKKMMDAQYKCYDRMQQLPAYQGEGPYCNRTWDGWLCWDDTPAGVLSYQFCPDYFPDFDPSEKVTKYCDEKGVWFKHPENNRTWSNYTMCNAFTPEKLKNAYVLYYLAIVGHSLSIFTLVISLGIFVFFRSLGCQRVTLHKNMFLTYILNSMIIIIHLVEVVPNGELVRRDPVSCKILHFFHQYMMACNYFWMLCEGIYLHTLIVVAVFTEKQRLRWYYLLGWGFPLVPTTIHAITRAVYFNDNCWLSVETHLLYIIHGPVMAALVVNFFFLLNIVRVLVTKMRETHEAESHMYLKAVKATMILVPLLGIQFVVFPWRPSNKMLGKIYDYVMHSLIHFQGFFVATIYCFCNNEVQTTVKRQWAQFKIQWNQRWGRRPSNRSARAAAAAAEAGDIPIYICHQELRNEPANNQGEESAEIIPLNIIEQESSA
T1 sequence (looked up) 2: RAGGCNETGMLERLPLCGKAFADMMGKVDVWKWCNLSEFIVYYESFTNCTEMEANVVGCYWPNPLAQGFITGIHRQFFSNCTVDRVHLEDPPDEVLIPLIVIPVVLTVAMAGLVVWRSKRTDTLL

[2] = target: T2, human calcitonin receptor (human, UniProt P30988 25-474); assay: cell-based or functional assay
T2 sequence (looked up): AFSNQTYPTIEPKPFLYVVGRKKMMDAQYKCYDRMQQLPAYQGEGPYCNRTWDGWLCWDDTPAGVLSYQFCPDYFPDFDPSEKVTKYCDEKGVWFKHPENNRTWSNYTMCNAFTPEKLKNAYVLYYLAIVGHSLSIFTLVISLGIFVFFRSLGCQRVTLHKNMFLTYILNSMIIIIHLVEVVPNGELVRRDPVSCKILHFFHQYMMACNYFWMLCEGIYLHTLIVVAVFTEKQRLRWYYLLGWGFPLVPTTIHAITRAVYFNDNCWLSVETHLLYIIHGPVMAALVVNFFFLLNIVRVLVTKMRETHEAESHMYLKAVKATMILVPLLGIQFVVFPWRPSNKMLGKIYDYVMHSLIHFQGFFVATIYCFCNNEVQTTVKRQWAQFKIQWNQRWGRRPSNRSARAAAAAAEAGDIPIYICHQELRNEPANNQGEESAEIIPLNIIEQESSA

| Binder | hAmylin-R funct. EC50 [1] [nM] | Ratio hCT/hAmylin funct. (hCTR EC50 against hAmylin-R EC50) [2] | hCTR funct. EC50 [2] [nM] |
| --- | --- | --- | --- |
| K([AEEA-γGlu-C20 diacid])CNTATCATQRLAGFLRHSSPNFGAIPSSTPVGSNTY-NH2 (disulfide 2-7; N-terminus assumed; SMILES CC[C@H](C)[C@H](NC(=O)[C@H](C)NC(=O)CNC(=O)[C@H](Cc1ccccc1)NC(=O)[C@H](CC(N)=O)NC(=O)[C@@H]1CCCN1C(=O)[C@H](CO)NC(=O)[C@H](CO)NC(=O)[C@H](Cc1c[nH]cn1)NC(=O)[C@H](CCCNC(=N)N)NC(=O)[C@H](CC(C)C)NC(=O)[C@H](Cc1ccccc1)NC(=O)CNC(=O)[C@H](C)NC(=O)[C@H](CC(C)C)NC(=O)[C@H](CCCNC(=N)N)NC(=O)[C@H](CCC(N)=O)NC(=O)[C@@H](NC(=O)[C@H](C)NC(=O)[C@@H]1CSSC[C@H](NC(=O)[C@@H](N)CCCCNC(=O)COCCOCCNC(=O)CC[C@H](NC(=O)CCCCCCCCCCCCCCCCCCC(=O)O)C(=O)O)C(=O)N[C@@H](CC(N)=O)C(=O)N[C@@H]([C@@H](C)O)C(=O)N[C@@H](C)C(=O)N[C@@H]([C@@H](C)O)C(=O)N1)[C@@H](C)O)C(=O)N1CCC[C@H]1C(=O)N[C@@H](CO)C(=O)N[C@@H](CO)C(=O)N[C@H](C(=O)N1CCC[C@H]1C(=O)N[C@H](C(=O)NCC(=O)N[C@@H](CO)C(=O)N[C@@H](CC(N)=O)C(=O)N[C@H](C(=O)N[C@@H](Cc1ccc(O)cc1)C(N)=O)[C@@H](C)O)C(C)C)[C@@H](C)O, also called compound 71) | 0.056 | 9.4 | 0.527 |
| K([AEEA-γGlu-C20 diacid])CNTATCATQRLAHFLRHSSPNFGAIPSSTNVGSNTY-NH2 (disulfide 2-7; N-terminus assumed; SMILES CC[C@H](C)[C@H](NC(=O)[C@H](C)NC(=O)CNC(=O)[C@H](Cc1ccccc1)NC(=O)[C@H](CC(N)=O)NC(=O)[C@@H]1CCCN1C(=O)[C@H](CO)NC(=O)[C@H](CO)NC(=O)[C@H](Cc1c[nH]cn1)NC(=O)[C@H](CCCNC(=N)N)NC(=O)[C@H](CC(C)C)NC(=O)[C@H](Cc1ccccc1)NC(=O)[C@H](Cc1c[nH]cn1)NC(=O)[C@H](C)NC(=O)[C@H](CC(C)C)NC(=O)[C@H](CCCNC(=N)N)NC(=O)[C@H](CCC(N)=O)NC(=O)[C@@H](NC(=O)[C@H](C)NC(=O)[C@@H]1CSSC[C@H](NC(=O)[C@@H](N)CCCCNC(=O)COCCOCCNC(=O)CC[C@H](NC(=O)CCCCCCCCCCCCCCCCCCC(=O)O)C(=O)O)C(=O)N[C@@H](CC(N)=O)C(=O)N[C@@H]([C@@H](C)O)C(=O)N[C@@H](C)C(=O)N[C@@H]([C@@H](C)O)C(=O)N1)[C@@H](C)O)C(=O)N1CCC[C@H]1C(=O)N[C@@H](CO)C(=O)N[C@@H](CO)C(=O)N[C@H](C(=O)N[C@@H](CC(N)=O)C(=O)N[C@H](C(=O)NCC(=O)N[C@@H](CO)C(=O)N[C@@H](CC(N)=O)C(=O)N[C@H](C(=O)N[C@@H](Cc1ccc(O)cc1)C(N)=O)[C@@H](C)O)C(C)C)[C@@H](C)O, also called compound 69) | 0.094 | 13.3 | 1.25 |
| K([AEEA-γGlu-C20 diacid])CNTATCATQRLAHFLRHSSPNFGAIPSSTNVGPNTY-NH2 (disulfide 2-7; N-terminus assumed; SMILES CC[C@H](C)[C@H](NC(=O)[C@H](C)NC(=O)CNC(=O)[C@H](Cc1ccccc1)NC(=O)[C@H](CC(N)=O)NC(=O)[C@@H]1CCCN1C(=O)[C@H](CO)NC(=O)[C@H](CO)NC(=O)[C@H](Cc1c[nH]cn1)NC(=O)[C@H](CCCNC(=N)N)NC(=O)[C@H](CC(C)C)NC(=O)[C@H](Cc1ccccc1)NC(=O)[C@H](Cc1c[nH]cn1)NC(=O)[C@H](C)NC(=O)[C@H](CC(C)C)NC(=O)[C@H](CCCNC(=N)N)NC(=O)[C@H](CCC(N)=O)NC(=O)[C@@H](NC(=O)[C@H](C)NC(=O)[C@@H]1CSSC[C@H](NC(=O)[C@@H](N)CCCCNC(=O)COCCOCCNC(=O)CC[C@H](NC(=O)CCCCCCCCCCCCCCCCCCC(=O)O)C(=O)O)C(=O)N[C@@H](CC(N)=O)C(=O)N[C@@H]([C@@H](C)O)C(=O)N[C@@H](C)C(=O)N[C@@H]([C@@H](C)O)C(=O)N1)[C@@H](C)O)C(=O)N1CCC[C@H]1C(=O)N[C@@H](CO)C(=O)N[C@@H](CO)C(=O)N[C@H](C(=O)N[C@@H](CC(N)=O)C(=O)N[C@H](C(=O)NCC(=O)N1CCC[C@H]1C(=O)N[C@@H](CC(N)=O)C(=O)N[C@H](C(=O)N[C@@H](Cc1ccc(O)cc1)C(N)=O)[C@@H](C)O)C(C)C)[C@@H](C)O, also called compound 68) | 0.054 | 17.4 | 0.932 |
| K([AEEA-γGlu-C20 diacid])CNTATCATQRLAHFLRHSSPNFGAIPSSTPVGSNTY-NH2 (disulfide 2-7; N-terminus assumed; SMILES CC[C@H](C)[C@H](NC(=O)[C@H](C)NC(=O)CNC(=O)[C@H](Cc1ccccc1)NC(=O)[C@H](CC(N)=O)NC(=O)[C@@H]1CCCN1C(=O)[C@H](CO)NC(=O)[C@H](CO)NC(=O)[C@H](Cc1c[nH]cn1)NC(=O)[C@H](CCCNC(=N)N)NC(=O)[C@H](CC(C)C)NC(=O)[C@H](Cc1ccccc1)NC(=O)[C@H](Cc1c[nH]cn1)NC(=O)[C@H](C)NC(=O)[C@H](CC(C)C)NC(=O)[C@H](CCCNC(=N)N)NC(=O)[C@H](CCC(N)=O)NC(=O)[C@@H](NC(=O)[C@H](C)NC(=O)[C@@H]1CSSC[C@H](NC(=O)[C@@H](N)CCCCNC(=O)COCCOCCNC(=O)CC[C@H](NC(=O)CCCCCCCCCCCCCCCCCCC(=O)O)C(=O)O)C(=O)N[C@@H](CC(N)=O)C(=O)N[C@@H]([C@@H](C)O)C(=O)N[C@@H](C)C(=O)N[C@@H]([C@@H](C)O)C(=O)N1)[C@@H](C)O)C(=O)N1CCC[C@H]1C(=O)N[C@@H](CO)C(=O)N[C@@H](CO)C(=O)N[C@H](C(=O)N1CCC[C@H]1C(=O)N[C@H](C(=O)NCC(=O)N[C@@H](CO)C(=O)N[C@@H](CC(N)=O)C(=O)N[C@H](C(=O)N[C@@H](Cc1ccc(O)cc1)C(N)=O)[C@@H](C)O)C(C)C)[C@@H](C)O, also called compound 61) | 0.051 | 10.9 | 0.554 |
